From patent US20240002505A1 (NANJING IASO BIOTECHNOLOGY, published 2024)

B1: Clone 10 anti-CD5 IgG (antibody, V domains shown)
VH: EVQLLESGGGLVKPGGSLRLSCAASGFTFNNYTMNWVRQAPGKGLEWVSSISSSSSYIYYADSVKGRFTISRDNAKNSLFLQMNSLRGEDTAVYYCARYFSGSAGDYWGQGTLVTVSS
VL: QSVVTQPPSVSGAPGQRVTISCTGSSSNIGAGYDVHWYQQLPGTAPKLLIYGNINRPSGVPDRFSGSKSGTSASLAITGLQAEDEADYYCGTWDNSLSAHYVFGTGTKVTVLG
B2: H65 anti-CD5 IgG (antibody, V domains shown)
VH: QIQLVQSGPELKKPGETVKISCKASGYTFTNYGMNWVKQAPGKGLRWMGWINTHTGEPTYADDFKGRFAFSLETSASTAYLQINNLKNEDTATYFCTRRGYDWYFDVWGAGTTVTVSS
VL: DIKMTQSPSSMYASLGERVTITCKASQDINSYLSWFHHKPGKSPKTLIYRANRLVDGVPSRFSGSGSGQDYSLTISSLDYEDMGIYYCQQYDESPWTFGGGTKLEIK
B3: phage monoclone #32 (scFv)
scFv: QVQLVESGGGLVKPGGSLRLSCAASGFTFSSYSMNWVRQAPGKGLEWVSSISSSSSYIYYADSVKGRFTISRDNAKNSLYLQMNSLRAEDTAVYYCARGNPWYGVDYWGQGTLVTVSSTSGGGGSGGGGSGGGGSELQSVLTQPPSVSAAPGQKVTISCSGSNSNIGNNYVSWYQQLPGTAPKRLIYDNNKRPSGIPDRFSGSKSGTSATLGITGLQTGDEADYYCGIWDSSLDAYVFGTGTKVTVLG
notes: also called scFv32
B4: phage monoclone #6 (scFv)
scFv: NFMLTQPHSVSESPGKTVTISCTGNSGSIARNYVQWYQQRPGSAPTMLIYEDNRRPSGVPDRFSGSIDSSSNSASLTISGLKTEDEADYYCQSYDDNTSWVFGGGTKLTVLGSRGGGGSGGGGSGGGGSLEMAEVQLVQSGAEVKKPGSSVKVSCKASGGTFSSNAITWVRQAPGQGLEWMGGIIPMFGTTDYAQKFQGRVTMTADESTSTAYMELRSLRSEDTAVYYCARDGGGRHPYYYYGMDVWGQGTTVTVSS
notes: also called scFv6
B5: Clone 35 anti-CD5 IgG (antibody, V domains shown)
VH: QVQLVESGGGLVQPGGSLRLSCAASGFTFSSYAMSWVRQTPGKGLEWVSTITDSGDITYYTASVQGRFTISRDNSKNTLYLQMNSLRAEDTAVYYCARMSSHWYFSADYWGQGTLVTVSS
VL: QSVLTQPPSVSAAPGQKVTISCSGSSSNIGNNYVSWYQQLPGTAPKLLIYDNNKRPSGIPDRFSGSKSGTSATLGITGLQTGDEADYYCGTWDSSLSAVVFGGGTKLTVLG
notes: The VH entry as printed begins with MA carried over from the scFv
B6: Clone 32 anti-CD5 IgG (antibody, V domains shown)
VH: QVQLVESGGGLVKPGGSLRLSCAASGFTFSSYSMNWVRQAPGKGLEWVSSISSSSSYIYYADSVKGRFTISRDNAKNSLYLQMNSLRAEDTAVYYCARGNPWYGVDYWGQGTLVTVSS
VL: QSVLTQPPSVSAAPGQKVTISCSGSNSNIGNNYVSWYQQLPGTAPKRLIYDNNKRPSGIPDRFSGSKSGTSATLGITGLQTGDEADYYCGIWDSSLDAYVFGTGTKVTVLG
B7: phage monoclone #10 (scFv)
scFv: QSVVTQPPSVSGAPGQRVTISCTGSSSNIGAGYDVHWYQQLPGTAPKLLIYGNINRPSGVPDRFSGSKSGTSASLAITGLQAEDEADYYCGTWDNSLSAHYVFGTGTKVTVLGSRGGGGSGGGGSGGGGSLEEVQLLESGGGLVKPGGSLRLSCAASGFTFNNYTMNWVRQAPGKGLEWVSSISSSSSYIYYADSVKGRFTISRDNAKNSLFLQMNSLRGEDTAVYYCARYFSGSAGDYWGQGTLVTVSS
notes: also called scFv10
B8: phage monoclone #7 (scFv)
scFv: QSVVTQPPSVSAAPGQKATISCSGSSSNIGNNDVSWYQQLPGTAPKLLIQDNDKRPSGIPDRFSGSKSGTSATLGITGLQTGDEADYYCAVWDSSLSAAVFGPGTKVTVLGSRGGGGSGGGGSGGGGSLEMAEVQLVQSGAEVKKPGESLKISCKGSGYSFTSYWIGWVRQMPGKGLEWMGIIYPDDSDTTYSPSFQGQVTMSVDKSISTAYLQWNSLQASDTAMYYCARMSLTSYLATDGWGQGTLVTVSS
notes: also called scFv7
B9: phage monoclone #35 (scFv)
scFv: QSVLTQPPSVSAAPGQKVTISCSGSSSNIGNNYVSWYQQLPGTAPKLLIYDNNKRPSGIPDRFSGSKSGTSATLGITGLQTGDEADYYCGTWDSSLSAVVFGGGTKLTVLGSRGGGGSGGGGSGGGGSLEMAQVQLVESGGGLVQPGGSLRLSCAASGFTFSSYAMSWVRQTPGKGLEWVSTITDSGDITYYTASVQGRFTISRDNSKNTLYLQMNSLRAEDTAVYYCARMSSHWYFSADYWGQGTLVTVSS
notes: also called scFv35
B10: phage monoclone #9 (scFv)
scFv: QPVLTQPPSVSGSPGQSVTISCTGTSDDIGNYKRVSWYQQPPGTAPKLMIYEVTNRPPGVPNRFSGSKSGNTASLTISGLQAEDEADYYCSSYASGDTYVFGTGTKVTVLGSRGGGGSGGGGSGGGGSLEQVQLVQSGAEVEKPGASVKISCKASTYTFTNYYIHWVRQAPGQGLEWMGMINPSGDTTSYAQKFQGRVTMTRDTSTSTVYMELSSLRSEDTAVYYCARLSWYWGGSFDDWGQGTLVTVSS
notes: also called scFv9

Tests used:
[1] = biological target: T1, CD5 antigen (Octet affinity determination, Example 8) (UniProt P06127 25-372, limits assumed); experiment: BLI (Octet), IgG loaded on the biosensor, CD5 antigen 400 to 12.5 nM, 1:1 model
T1 sequence (looked up): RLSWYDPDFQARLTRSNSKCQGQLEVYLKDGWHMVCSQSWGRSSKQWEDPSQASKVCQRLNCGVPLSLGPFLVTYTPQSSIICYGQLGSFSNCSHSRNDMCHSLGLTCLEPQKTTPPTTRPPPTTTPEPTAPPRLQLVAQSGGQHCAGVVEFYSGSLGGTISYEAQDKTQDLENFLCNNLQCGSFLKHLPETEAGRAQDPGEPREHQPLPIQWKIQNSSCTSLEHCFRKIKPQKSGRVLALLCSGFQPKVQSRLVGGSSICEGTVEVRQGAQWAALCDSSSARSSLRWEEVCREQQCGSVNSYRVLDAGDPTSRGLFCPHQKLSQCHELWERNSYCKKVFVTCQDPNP

[2] = biological target: T2, Streptavidin (Pierce, 21125) (UniProt P22629 37-163, limits assumed); experiment: phage ELISA
T2 construct: Non-related control antigen; also called SA

[3] = biological target: T3, Recombinant biotinylated Human CD19 Protein-Fc (Kactus, CD2-HE121) (human, UniProt P15391 20-291, biotinylated); experiment: phage ELISA
T3 construct: Control antigen; also called CD19-Fc-Bio; Kactus-CD19-FC-Bio; not shown: Fc tag
T3 sequence (looked up): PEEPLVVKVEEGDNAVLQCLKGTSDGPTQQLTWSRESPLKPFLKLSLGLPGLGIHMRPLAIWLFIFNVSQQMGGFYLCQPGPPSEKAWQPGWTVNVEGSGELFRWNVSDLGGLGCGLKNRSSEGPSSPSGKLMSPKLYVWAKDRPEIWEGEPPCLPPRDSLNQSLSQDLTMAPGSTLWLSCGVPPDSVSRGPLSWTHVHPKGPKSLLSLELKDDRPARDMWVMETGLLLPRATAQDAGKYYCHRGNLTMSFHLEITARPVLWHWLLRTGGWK

[4] = biological target: T4, Biotinylated Recombinant human BAFFR Protein (Kactus, BAF-HM40RB) (human, UniProt Q96RJ3 7-71, limits assumed, biotinylated); experiment: phage ELISA
T4 construct: Non-related control antigen; also called Kactus-BAFFR-his-Bio; not shown: his tag
T4 sequence (looked up): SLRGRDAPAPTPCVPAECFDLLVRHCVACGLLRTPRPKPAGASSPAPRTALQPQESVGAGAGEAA

[5] = biological target: T5, human CD5 on the cell surface (human, UniProt P06127 25-495); experiment: phage FACS on CCRF-CEM cells (CD5 positive), anti-M13 + FITC anti-mouse IgG, median of FITC-A
T5 construct: whole, on cells; One molecule for CD5 on all cell lines; also called natural CD5 on the cell membrane; CD5 antigen on Jurkat, CCRF-CEM, MOLT4 cells
T5 sequence (looked up): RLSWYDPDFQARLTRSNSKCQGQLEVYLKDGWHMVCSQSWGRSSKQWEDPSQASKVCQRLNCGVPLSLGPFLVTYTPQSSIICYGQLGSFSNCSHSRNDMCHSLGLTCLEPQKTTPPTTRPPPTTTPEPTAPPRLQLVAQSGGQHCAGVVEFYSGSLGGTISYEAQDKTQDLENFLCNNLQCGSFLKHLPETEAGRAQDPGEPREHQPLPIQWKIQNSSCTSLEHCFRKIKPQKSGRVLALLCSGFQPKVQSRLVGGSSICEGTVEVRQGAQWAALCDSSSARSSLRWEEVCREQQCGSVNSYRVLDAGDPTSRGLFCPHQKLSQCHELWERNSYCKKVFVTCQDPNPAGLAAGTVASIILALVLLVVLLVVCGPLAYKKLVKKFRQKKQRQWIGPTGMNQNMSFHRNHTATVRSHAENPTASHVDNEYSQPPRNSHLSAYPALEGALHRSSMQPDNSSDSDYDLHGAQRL

[6] = biological target: T5, human CD5 on the cell surface; experiment: phage FACS on Jurkat cells (CD5 positive), anti-M13 + FITC anti-mouse IgG, median of FITC-A

T2 sequence (P22629 37-163 limits assumed): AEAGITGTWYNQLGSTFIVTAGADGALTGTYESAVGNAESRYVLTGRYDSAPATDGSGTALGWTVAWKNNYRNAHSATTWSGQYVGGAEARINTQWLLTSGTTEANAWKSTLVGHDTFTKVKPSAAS

Binder | Kd [1] | koff [1] | kon [1] | binding result [2] | binding result [3] | binding result [4] | Median (B1-A) [5] | Median (B1-A) [6]
B1 | 4.49 nM | 0.00143 s⁻¹ | 318000 M⁻¹ s⁻¹ | – | – | – | – | –
B2 | 2.25 nM | 0.000813 s⁻¹ | 361000 M⁻¹ s⁻¹ | – | – | – | – | –
B3 | – | – | – | no binding | no binding | no binding | – | –
B4 | – | – | – | no binding | no binding | no binding | 1.71 | 71.8
B5 | 13.6 nM | 0.000382 s⁻¹ | 28100 M⁻¹ s⁻¹ | – | – | – | – | –
B6 | 28.3 nM | 0.00217 s⁻¹ | 76500 M⁻¹ s⁻¹ | – | – | – | – | –
B7 | – | – | – | no binding | no binding | no binding | 17.1 | 31.6
B8 | – | – | – | no binding | no binding | no binding | 12.4 | 28.3
B9 | – | – | – | no binding | no binding | no binding | – | –
B10 | – | – | – | no binding | no binding | no binding | 3.37 | 12.8
